B1: CPEB3 Ribozyme (parent)
chain: UAACAGGGGGCCACAGCAGAAGCGUUCACGUCGCAGCCCCUGUCAGAUUCUGGUGAAUCUGCGAAUUCUGCUGUAUAUCUC

The series covers variants of B1. The series can be described thus: self-cleavage, relative activity (ratio to wild type); higher = more cleavage; in vitro, sequencing. The procedure, abridged:
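For each CPEB3 ribozyme variant, relative activity is its cleaved/total read fraction divided by the unmutated ribozyme's. Barcoded error-prone PCR libraries were transcribed by T7 RNA polymerase (5 hours, 37°C) and held in DNase I for 15 min before an EDTA stop, with cleavage occurring throughout. Template-switching reverse transcription and Illumina sequencing were used to read the RNAs. A 5-read minimum applied, and results are the mean of three batches.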
As to UAACAGGGGGCCACAGCAGAGGCGUUCACGUCGCAGACCCUGUCAGAUUCUGGUGAAUCUGCGAAUUCUGCUGUAUAUCUC [A21G C37A], the self-cleavage turned out to be 0.42.

In the case of UAACAGGGGGCCACAGCAGUAGCGUUCACGUCGCAGCCCCAGUCAGAUUCUGGUGAAUCUGCGAAUUCUGCUGUAUAUCUC [A20U U41A], the self-cleavage came to 0.3.

With UAACAGGGGGCCACAGCAGAAGCGUUCACGUCGCGGCCCCUGUCAGAUUCUGGUCAAUCUGCGAAUUCUGCUGUAUAUCUC [A35G G55C], the self-cleavage was determined as 1.46.

Regarding UAACAGGGGGCCACAGCAGCAGCGUUCACGUCGCAGCCCCUGUCAGAUUCUGGUGAACCUGCGAAUUCUGCUGUAUAUCUC [A20C U58C], the self-cleavage was determined as 0.43.

For UAACAGGGGGCCACAUCAGAAGCGUUCACGUCCCAGCCCCUGUCAGAUUCUGGUGAAUCUGCGAAUUCUGCUGUAUAUCUC [G16U G33C], the self-cleavage was found to be 0.09.

As for UAACAGGGGGCCACAGCGGAAGCGUUCACGUCGCAGCCCCUGUCAGAUUCUGGUGAAUCUGCGAAUUCUGCUGCAUAUCUC [A18G U74C], the self-cleavage amounted to 1.1.

On to UAACAGGGGGCCACAGCAGAAGCAUUCAGGUCGCAGCCCCUGUCAGAUUCUGGUGAAUCUGCGAAUUCUGCUGUAUAUCUC [G24A C29G], for which the self-cleavage came to 0.21.

Turning to UAACCGGGGGCCACAGCGGAAGCGUUCACGUCGCAGCCCCUGUCAGAUUCUGGUGAAUCUGCGAAUUCUGCUGUAUAUCUC [A5C A18G], the self-cleavage was 0.53.

AAACAGGGGGCCACAGCAGAAGCGUUCACGUCGCAGCCCCUGUCAGAUUCUGGUGAAUCUGCGAGUUCUGCUGUAUAUCUC [U1A A65G]: the self-cleavage amounted to 0.48.

Take UAACAGGGGGCCACAGCAGACGCGUUCACGUCGCAGCCCCUGUCAGAUUCUGGUGAAUCUGCGAAUUCUGCUGUAUAUCAC [A21C U80A]: the self-cleavage came out at 0.18.

UAACAGGGGGCCACAGCAGAAGCUUUCACGUCGCAGCCCCUGUCUGAUUCUGGUGAAUCUGCGAAUUCUGCUGUAUAUCUC [G24U A45U]: the self-cleavage is 0.18.

As to UAACAGGGGGCCACAGCAGAAGCAUUCACGUCGCAGCCCCGGUCAGAUUCUGGUGAAUCUGCGAAUUCUGCUGUAUAUCUC [G24A U41G], the self-cleavage was determined as 0.12.

On to UAACAGGGGGCCACAGCAGAAGCGUUCACGUCGCAGCCCCUGUCAGAUUCUGGUGAAUCUGCGAAUUCUGCUGUUCAUCUC [A75U U76C], for which the self-cleavage worked out at 1.29.

Consider UAACCGGGGGCCACAGCAGAAGCGUUCACGUCGCAGCCCCUGUCAGAUUCUGGCGAAUCUGCGAAUUCUGCUGUAUAUCUC [A5C U54C], for which the self-cleavage is 1.09.

For UAACAGGGGGCCACAGCAGAAGCGUUCACGUCGCAGCCCCUGACAGAUUCUGGUGAAUCUGCGAAUUCUGUUGUAUAUCUC [U43A C71U], the self-cleavage came to 0.49.

Regarding UAACAGGGGGCCACAGCAGAAGCGUUCACGUCGCGGCCCCUGUCAGAUUCUGGUGUAUCUGCGAAUUCUGCUGUAUAUCUC [A35G A56U], the self-cleavage came out at 1.24.

Take UAACAGGGGGCCACAGCAGGAGCGUUCACGUCGCAGCCCCUGACAGAUUCUGGUGAAUCUGCGAAUUCUGCUGUAUAUCUC [A20G U43A]: the self-cleavage was determined as 1.05.

Regarding UAACAGGGGGCCACAGCAGAAGCUUUCACGUCGCGGCCCCUGUCAGAUUCUGGUGAAUCUGCGAAUUCUGCUGUAUAUCUC [G24U A35G], the self-cleavage amounted to 0.9.

On to UAACAGGGGGCCACAGCAGAUGCGUUCACGACGCAGCCCCUGUCAGAUUCUGGUGAAUCUGCGAAUUCUGCUGUAUAUCUC [A21U U31A], for which the self-cleavage stood at 0.13.

UAACAGGGGGCCACAGCUGAAGCGUUCACGUCGCAGCCCCUGUCGGAUUCUGGUGAAUCUGCGAAUUCUGCUGUAUAUCUC [A18U A45G]: the self-cleavage came to 0.32.

For the variant UAACAGGGGGCCACAGCAGAAGCGUUCACGCCGCAGCCCCUGACAGAUUCUGGUGAAUCUGCGAAUUCUGCUGUAUAUCUC [U31C U43A], the self-cleavage is 1.03.

For the variant UAACAGGCGGCCACAGCAGAAGCGUUCACGUCGCAGCCCCUGUCAGAUUCUGGUGAGUCUGCGAAUUCUGCUGUAUAUCUC [G8C A57G], the self-cleavage came out at 0.52.

Turning to UAUCAGGGGGCCACAGCAGAAGCGUUCACGACGCAGCCCCUGUCAGAUUCUGGUGAAUCUGCGAAUUCUGCUGUAUAUCUC [A3U U31A], the self-cleavage was 0.55.

UAACAGGGGCCCACAGCAGAAGCGUUCACGUCGCAGCCCCUGUCUGAUUCUGGUGAAUCUGCGAAUUCUGCUGUAUAUCUC [G10C A45U]: the self-cleavage came out at 0.16.

As to UAACAGGGGGCCACAGCAGAAGCGAUCACGUCGCAGCCCCUAUCAGAUUCUGGUGAAUCUGCGAAUUCUGCUGUAUAUCUC [U25A G42A], the self-cleavage is 0.2.

Consider UAUCAGGGGGCCACAGCAGAAGCGUUCACGUCGCAGCCCCUGUCAGAUCCUGGUGAAUCUGCGAAUUCUGCUGUAUAUCUC [A3U U49C], for which the self-cleavage turned out to be 0.51.

With UAACAGGGGGCCACAGCAGAAGCGUUCGCGUCGCAGCCCCUGUUAGAUUCUGGUGAAUCUGCGAAUUCUGCUGUAUAUCUC [A28G C44U], the self-cleavage was determined as 0.28.

Consider UAACAGGGGGCCACAGCAGAAGCGUUCAGGUCGCAGCCCCUGUCAGAUUCUGGUGAAUCUGCGAAUUCGGCUGUAUAUCUC [C29G U69G], for which the self-cleavage came out at 0.12.

For the variant UAACAGGGGGCCACAUCAGAAGCGUUCACGUCGCAGCCCCUGUCAGAUUCUGGUGAAUCUGCGAAUUCUGCUGCAUAUCUC [G16U U74C], the self-cleavage amounted to 0.58.

For UAACAGGGGGCCACAGCAGAAGCGUUCACGUCGCAGCCCCUGUCAGAUUCUGGGGAAUCUGCGAAUUCUGCUGUUUAUCUC [U54G A75U], the self-cleavage stood at 0.96.

For the variant UAACAGGGGGCCACAGCAGAAGCGUUCACGUCGCAGCUCCUGUCAGAUUCUGGUGAAGCUGCGAAUUCUGCUGUAUAUCUC [C38U U58G], the self-cleavage is 0.08.

In the case of UAACAGGGGGCCACAGCAGAAGCGUUCACGUCGCAGCCCCUGUCAGAUUCUUGUGAAUCUGCGAAUUCAGCUGUAUAUCUC [G52U U69A], the self-cleavage came to 0.72.

Take UAACAGGGGGCCACAGCAGAAGCGUUCACGUCGCUGCCCCCGUCAGAUUCUGGUGAAUCUGCGAAUUCUGCUGUAUAUCUC [A35U U41C]: the self-cleavage amounted to 0.5.

UAACAGGGGGCCACAGCAGAAGCGUUCACGUCGCAGCCCCUGUCUGAUUCUGGUGAAUCUACGAAUUCUGCUGUAUAUCUC [A45U G61A]: the self-cleavage amounted to 0.46.

Source of the values: the RNAGym collection of RNA variant scans (doi:10.1093/nar/gkz1192).
